What all share (test): pull-down
For test [1], the target named is GST-Gαs (human) (human) (UniProt P63092).
Test [2] has as its target GST-Gαi3 wild type (rat) (rat) (UniProt P08753).
In test [3] the target is GST-Gαi3 G203A (rat, inactive mutant) (rat) (UniProt P08753).

Sequence of UniProt P63092 (P63092 2-394): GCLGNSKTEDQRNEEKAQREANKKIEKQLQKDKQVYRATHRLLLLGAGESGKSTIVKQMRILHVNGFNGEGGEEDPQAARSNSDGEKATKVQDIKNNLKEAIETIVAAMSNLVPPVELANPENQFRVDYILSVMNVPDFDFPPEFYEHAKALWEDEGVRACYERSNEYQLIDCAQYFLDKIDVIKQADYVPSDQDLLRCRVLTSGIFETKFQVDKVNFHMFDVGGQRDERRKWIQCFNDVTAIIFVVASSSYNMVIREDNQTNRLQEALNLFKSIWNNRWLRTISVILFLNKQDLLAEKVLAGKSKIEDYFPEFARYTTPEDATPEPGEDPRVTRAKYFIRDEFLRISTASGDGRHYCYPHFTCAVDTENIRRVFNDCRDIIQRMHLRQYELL

“GIV (Gα-interacting vesicle-associated protein), endogenous in HeLa cell lysate (natural protein)”: in test [1], the fold less GIV bound than by GST-Gαi3 was 100 to 300 fold. In test [2], this substance came in with a percent of the total GIV bound of 10 to 30%. The substance further showed a fold more GIV bound than by Gαi3Q204L in test [3] of 10 to 15 fold.

In the case of “GIV S1416A, in vitro translated (natural protein)”, in test [2], the percent of GIV bound to GST-Gαi3 is 13%.

As for “GIV S1416D, in vitro translated (natural protein)”, in test [2], the percent of GIV bound to GST-Gαi3 is 14%.

As for “GIV, full length, in vitro translated (natural protein)”, the fold less GIV bound than by GST-Gαi3 in test [1] was in the range of 100 to 300 fold. Also, the percent of GIV bound to GST-Gαi3 in test [2] was 14%. Further, the fold more GIV bound than by Gαi3Q204L in test [3] fell in the range of 10 to 15 fold.
